Test results published in paper doi:10.1101/2021.10.03.462214.

Biological target: human 26S proteasome (human) (UniProt P60900)

Kd: 239 nM
Substance: K48 linked tetra-ubiquitin chains (from UniProt P0CG47 1-76)
